# Source: patent publication US20040120954A1, “Regulation of mt1-mmp activity” (priority 2000, published 2004)
# Assays:
# MT1-F = target: T1, MT1-F (Homo sapiens, UniProt P50281); assay: 125I-labeled TIMP-2 binding assay on transfected CHO-K1 cells
# T1 construct: expressed in transfected cells
# Procedure: FIG. 12: The efficacies of MT1PEX-F on the proteolytic activity and TIMP-2 binding ability of MT1-F expressed on a cell surface are shown. As is shown in FIG. 12 through FIG. 14, CHO-K1 cells were transfected with the expression vectors for MT1-F, MT1PEX-F or MT1Cat-F, or a vector alone (Mock). The cells were then treated with trypsin, and seeded on DQ™-gelatin coated cover slips for proteolytic activity tests (FIG. 13) and in 24-well plates for TIMP-2 binding assays (FIG. 12) and for proMMP-2 activation (FIG. 14). Results are all from the same transfection experiment. […]
# Next, to determine if MT1PEX-F affects the catalytic activity of MT1-MMP on the cell surface or not, tests for gelatin degrading activity and binding capacity to TIMP-2 were conducted using cells transfected in the same incubator. […] Transfected cells on the DQ™ gelatin-coated cover slip as shown in FIG. 13 were incubated in a medium at 37° C. for 18 hrs, and the generated fluorescence was analyzed using confocal microscopy. […] MT1-MMP specific binding was calculated by subtracting the datum obtained in the presence of BB-94 (50 μM) from each datum derived from the corresponding experiments. […] DQ™ gelatin is a fluorescence-quenched gelatin, which fluoresces upon proteolytic cleavage. […]
# MT1-F/NGFR = target: T2, MT1-F/NGFR (Homo sapiens, UniProt P04629+P50281); assay: Dimer formation of MT1-F/NGFR chimera on the cell surface (anti-phosphotyrosine PY20 Western blotting, co-transfected COS1 cells); assay type: cell-based; conditions: for competition in the dimer formation of MT1-F/NGFR (PY20 band intensity): COS1 cells co-transfected with MT1-F/NGFR and the construct (FIG. 23)
# T2 construct: expressed in transfected cells; host or cells: COS1 cells (pSG5 vector)
# Procedure: Cell lysate samples were subjected to separation on SDS-PAGE, followed by a transfer of the proteins in the gel to nitrocellulose membranes (Hybond-ECL, Amersham Pharmacia Biotech, Inc.). After blocking with a solution of 10% skim milk dissolved in TBS (20 mM Tris-HCl buffer, pH 7.5 containing 150 mM NaCl), the membrane was exposed to a monoclonal anti-FLAG M2 antibody (3 μg/ml) for detecting FLAG-tagged MT1-MMP and its mutants. In order to visualize the immunoreactive bands, the membrane was further exposed to an alkaline phosphatase-conjugated goat anti-mouse IgG antibody. For the purpose of detecting a phosphotyrosine residue in chimera proteins, a monoclonal anti-phosphotyrosine antibody, PY20 (1 μg/ml) was used.
# Cell lysates were subjected to SDS/PAGE, followed by a transfer of the proteins to nitrocellulose membranes (Hybond-ECL, Amersham Pharmacia Biotech, Inc.). MT1-MMP, MT1Cat, MT1-MT4PEX and MT1-F/NGFR were detected with a polyclonal anti-CAT antibody (1:2000), while MT1-MMP, MT1PEX and MT1-F/NGFR with an anti-PEX antibody (222-1D8, 0.5 μg/ml). FLAG-tagged MT1-MMP and its mutants were detected with an anti-FLAG M2 antibody (3 μg/ml). Chimera proteins containing a phosphotyrosine residue were detected with a monoclonal mouse anti-phosphotyrosine antibody, PY20 (ICN Biochemicals, Inc., OH, USA; 1 μg/ml). Immunoreactive bands were visualized with an alkaline phosphatase-conjugated goat anti-mouse IgG or anti-rabbit IgG (Sigma).
# NGFR forms a dimer through binding to its ligand. Subsequently, tyrosine residues in the cytoplasmic domain are trans-phosphorylated by its tyrosine kinase (Jing, S. et al., Neuron, 9: 1067-1079, 1992; Lemmon, M. A. et al., Trends Biochem. Sci., 19: 459-463, 1994).
# By utilizing the above principle, a chimeric protein is first constructed consisting of the ectodomain of MT1-MMP and the transmembrane (TM) and cytoplasmic (CP) domains of NGFR (FIG. 8) in order to test for direct complex formation. When the ectodomain of this chimeric protein forms a homophilic complex in a similar manner, tyrosine residues in the cytoplasmic domain will be phosphorylated.
# It is investigated whether co-expression of MT1PEX-F and MT1-F competes in the dimer formation of MT1-F/NGFR or not. For the test, the expression plasmids for MT1-F/NGFR and MT1PEX-F were co-transfected into COS1 cells.
# Next, the expression plasmids for MT1-F/NGFR and FLAG-tagged MT1PEX (MT1PEX-F), MT1Cat (MT1Cat-F), or MT1-F were co-transfected to investigate if the dimer formation of the chimera could be disrupted or not.
Substance,"decrease in TIMP-2 binding on the cell surface as compared with MT1-F alone (MT1-F; CHO-K1 cells co-transfected with MT1-F, 25 nM 125I-TIMP-2, 0° C., 1 hr, BB-94 (50 μM) background subtracted (FIG. 12))",decrease of phosphotyrosine signal (MT1-F/NGFR; COS1 cells co-expressing MT1-F/NGFR and Rac1DA (FIG. 24)),phosphorylation of MT1-F/NGFR (MT1-F/NGFR; COS1 cells co-transfected with MT1-F/NGFR and MT1PEX-F at indicated DNA ratio (FIG. 10)),competition in the dimer formation of MT1-F/NGFR (PY20 band intensity) (MT1-F/NGFR),"inhibition of the phosphorylation of MT1-F/NGFR (MT1-F/NGFR; COS1 cells co-transfected with MT1-F/NGFR, increasing levels of MT1PEX-F expression, PY20 band intensity (FIG. 10))",TIMP-2 binding capacity as compared to the cells bearing MT1-F (MT1-F; CHO-K1 cells expressing the mutant (FIG. 12))
"MT1PEX-F: Catalytic domain-deleted FLAG-tagged MT1-MMP (Δ Tyr112-Pro312), expressed by transfection",37%,43%,inhibited depending on the expression level,effectively competed,≥ 90%,
MT1Cat-F: PEX-deleted FLAG-tagged MT1-MMP (Δ Ile318-Gly535),,,,did not decrease the intensity of the band,,equivalent TIMP-2 binding capacity
